Test results from patent US20220361544A1, “Compositions Containing Brazzein” (The Coca-Cola Company, priority 2019, published 2022).
Like-named read-outs stand apart in the source and are kept apart here.

Assays:
[1] = cited from earlier work
[2] = cited from earlier work; remark: listed apart in the source
[3] = cited from earlier work; remark: listed apart in the source
[4] = Sensory evaluation of 472 ppm RebM80 + Brazzein in citric base; format: in vivo, human; conditions: Brazzein 1-15 ppm in 472 ppm of RebM80
Description: Example 6: Brazzein+Reb M (Taste Modifying Composition)

[5] = Sensory evaluation of 400 ppm A95 + Brazzein in citric base; format: in vivo, human; conditions: Brazzein 5 ppm to 20 ppm in 400 ppm of A95
Description: Example 7: Brazzein+Reb A95 (Taste Modifying Composition)
“A95” refers to a steviol glycoside blend comprising primarily reb D and reb M. Methods of obtaining A95 are provided in WO 2017/059414, incorporated herein by reference.

Brazzein: small, sweet-tasting protein from Pentadiplandra brazzeana Baillon; 53-amino acid minor form, SEQ ID NO: 1 (DKCKKVYENYPVSKCQLANQCNYDCKLDKHARSGECFYDEKRNLQCICDYCEY; listed as Pentadiplandra brazzeana)
Solubility [1]: > 50 mg/mL
Water solubility [1]: > 50 mg/mL
Taste similarity to sucrose ([2]; compared with thaumatin): more similar to sucrose than that of thaumatin
Sweetness of minor form relative to major form ([2]; minor form (des-pGlu1-brazzein) vs major form (pGlu-brazzein)): nearly twice the sweetness of the major form
Sweet taste after incubation ([3]; 80° C. for 4.5 h in the pH range of 2.5-8): remains
Sweet taste after incubation ([3]; 98° C. for 2 h): remains
Effect of Brazzein on taste property of 472 ppm RebM80 [4]: improves the taste property in 472 ppm of RebM80 such as, sour, less sweet, cover the bitterness and lingering. More mouthfeel, richness and fullbody.
Effect of Brazzein on taste of 400 ppm A95 [5]: can improve the mouthfeel, block bitterness and lingering in 400 ppm of A95
